# Laboratory results taken from patent US20250042994A1 (HAINAN SIMCERE ZAIMING PHARMACEUTICAL, published 2025).
# Changes are numbered by the printed parent chain.
# T1: Human CD19-his protein (human, UniProt P15391 20-291)
# T1 construct: bought protein; also called recombinant human CD19-His; CD19 full-length protein; not shown: His tag
# T1 sequence (looked up): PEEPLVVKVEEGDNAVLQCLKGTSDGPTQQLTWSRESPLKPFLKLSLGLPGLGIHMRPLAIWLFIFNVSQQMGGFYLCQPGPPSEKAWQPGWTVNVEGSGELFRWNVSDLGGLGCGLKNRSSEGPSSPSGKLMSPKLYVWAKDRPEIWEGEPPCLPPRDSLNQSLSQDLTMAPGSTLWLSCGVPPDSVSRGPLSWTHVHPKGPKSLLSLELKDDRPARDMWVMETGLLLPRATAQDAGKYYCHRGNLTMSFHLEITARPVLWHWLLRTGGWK
# T2: human CD19 exon1-3-His tag protein (human, UniProt P15391 20-186, limits assumed)
# T2 construct: membrane-distal part of the extracellular region, made in HEK293E cells; not shown: His tag
# T2 sequence (looked up): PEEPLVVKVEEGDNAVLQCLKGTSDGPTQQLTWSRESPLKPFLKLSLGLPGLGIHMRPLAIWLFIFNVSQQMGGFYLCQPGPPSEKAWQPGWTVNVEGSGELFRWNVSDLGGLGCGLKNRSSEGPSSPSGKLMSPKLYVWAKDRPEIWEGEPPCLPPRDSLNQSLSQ
# T3: human CD19 on CHO-K1-human CD19 cells (human, UniProt P15391 20-556)
# T3 construct: whole, on cells; also called CHO-K1-human CD19-2C8
# T3 sequence (looked up): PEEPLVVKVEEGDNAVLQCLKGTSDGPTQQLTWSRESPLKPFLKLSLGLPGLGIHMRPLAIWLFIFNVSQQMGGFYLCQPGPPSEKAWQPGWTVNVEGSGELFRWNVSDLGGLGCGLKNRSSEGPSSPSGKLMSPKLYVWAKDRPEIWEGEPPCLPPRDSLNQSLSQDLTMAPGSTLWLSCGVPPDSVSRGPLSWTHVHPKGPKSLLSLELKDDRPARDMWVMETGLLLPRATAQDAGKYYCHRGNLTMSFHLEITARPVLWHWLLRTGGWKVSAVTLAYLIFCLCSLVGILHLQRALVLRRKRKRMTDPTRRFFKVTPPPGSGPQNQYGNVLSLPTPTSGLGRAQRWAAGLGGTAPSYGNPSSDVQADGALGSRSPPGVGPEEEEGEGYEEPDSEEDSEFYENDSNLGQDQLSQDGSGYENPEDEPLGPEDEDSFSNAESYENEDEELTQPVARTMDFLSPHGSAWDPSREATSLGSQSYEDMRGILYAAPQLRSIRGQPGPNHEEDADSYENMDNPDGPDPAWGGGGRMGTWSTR
# T4: human CD19 on Raji cells (human, UniProt P15391 20-556)
# T4 construct: whole, on cells
# T4 sequence (looked up): T3 sequence (looked up)
# B1: F3.121.4-L2H1 (antibody, mouse IgG1, kappa, V domains shown)
# VH: EVQLVQSGAEVKKPGASVKVSCKASGYTFTNYWMHWVRQAPGQRLEWMGEIDPSDNYANYNQEFQGRVTITVDKSASTAYMELSSLRSEDTAVYYCARHDGYFGALDYWGQGTTVTVSS
# VL: EIVLTQSPDFQSVTPKEKVTITCSASSSISSNYLHWYQQKPDQSPKLLIKRTSNLASGVPSRFSGSGSGTDFTLTINSLEAEDAATYYCQQASSIPRMFTFGQGTKLEIKR
# notes: humanized antibody of F3.121.4, VL2+VH1, murine IgG1 constant regions
# B2: F3.121.4-L2H4 (antibody, mouse IgG1, kappa)
# heavy: EVQLQQSGAEVKKPGASVKVSCKASGYTFTNYWMHWVRQRPGQGLEWMGEIDPSDNYANYNQEFQGRVTITVDKSASTAYMELSSLRSEDTAVYYCARHDGYFGALDYWGQGTTVTVSSAKTTPPSVYPLAPGSAAQTNSMVTLGCLVKGYFPEPVTVTWNSGSLSSGVHTFPAVLQSDLYTLSSSVTVPSSTWPSETVTCNVAHPASSTKVDKKIVPRDCGCKPCICTVPEVSSVFIFPPKPKDVLTITLTPKVTCVVVDISKDDPEVQFSWFVDDVEVHTAQTQPREEQFNSTFRSVSELPIMHQDWLNGKEFKCRVNSAAFPAPIEKTISKTKGRPKAPQVYTIPPPKEQMAKDKVSLTCMITDFFPEDITVEWQWNGQPAENYKNTQPIMDTDGSYFVYSKLNVQKSNWEAGNTFTCSVLHEGLHNHHTEKSLSHSPGK
# light: EIVLTQSPDFQSVTPKEKVTITCSASSSISSNYLHWYQQKPDQSPKLLIKRTSNLASGVPSRFSGSGSGTDFTLTINSLEAEDAATYYCQQASSIPRMFTFGQGTKLEIKRADAAPTVSIFPPSSEQLTSGGASVVCFLNNFYPKDINVKWKIDGSERQNGVLNSWTDQDSKDSTYSMSSTLTLTKDEYERHNSYTCEATHKTSTSPIVKSFNRNEC
# notes: humanized antibody of F3.121.4, VL2+VH4, murine IgG1 constant regions
# B3: F3.121.4-L2H3 (antibody, mouse IgG1, kappa)
# heavy: B2 heavy with Q5V
# light: B2 light
# notes: humanized antibody of F3.121.4, VL2+VH3, murine IgG1 constant regions
# B4: F3.121.4-L3H2 (antibody, mouse IgG1, kappa, V domains shown)
# VH: B1 VH with R44G
# VL: B1 VL with L47F, K50Y
# notes: humanized antibody of F3.121.4, VL3+VH2, murine IgG1 constant regions
# B5: F3.121.4-L3H1 (antibody, mouse IgG1, kappa, V domains shown)
# VH: B1 VH
# VL: B1 VL with L47F, K50Y
# notes: humanized antibody of F3.121.4, VL3+VH1, murine IgG1 constant regions
# Target: T1, Human CD19-his protein
# Assay: ELISA on coated human CD19-His
row,Binder,EC50 (read off the curve)
1,B1,~50 pM
2,B2,~50 pM
3,B3,~50 pM
4,B4,~50 pM
5,B5,~50 pM

# Target: T1, Human CD19-his protein
# Assay: ELISA, coated human CD19-His
# Description: Human CD19-his protein (purchased from ACROBiosystems, catalog number: CD9-H52H2) was diluted with PBS to a final concentration of 4 μg/mL, and then added to a 96-well ELISA plate at 100 μl/well. The plate was sealed with a plastic film and incubated overnight at 4° C., the plate was washed 2 times with PBS the next day, and then a blocking solution [PBS+2% (w/w) BSA] was added for blocking at room temperature for 2 h. The blocking solution was poured off, and 100 nM gradiently diluted CD19 chimeric antibody or control antibody was added at 50 μl/well. After incubation at 37° C. for 2 h, the plate was washed 3 times with PBS. […] TMB substrate was added at 50 μl/well, and incubated at room temperature for 10 min, and then a stop solution (1.0 N HCl) was added at 50 μl/well. The OD450 nm values were read by an ELISA microplate reader (Multimode Plate Reader, EnSight, purchased from Perkin Elmer).
Binder,OD450 at 0.0001 nM,OD450 at 0.001 nM,OD450 at 0.01 nM,OD450 at 0.10 nM,OD450 at 1.00 nM,OD450 at 10 nM,OD450 at 100 nM
B1,0.1 OD450,0.13 OD450,0.38 OD450,1.52 OD450,2.42 OD450,2.45 OD450,2.57 OD450
B2,0.1 OD450,0.14 OD450,0.39 OD450,1.53 OD450,2.36 OD450,2.27 OD450,2.34 OD450
B3,0.1 OD450,0.14 OD450,0.39 OD450,1.55 OD450,2.47 OD450,2.33 OD450,2.32 OD450
B4,0.1 OD450,0.14 OD450,0.42 OD450,1.6 OD450,2.36 OD450,2.3 OD450,2.28 OD450
B5,0.1 OD450,0.14 OD450,0.39 OD450,1.62 OD450,2.42 OD450,2.37 OD450,2.17 OD450

# Target: T1, Human CD19-his protein
# Assay: SPR Biacore, method of example 7.1, human CD19-His
# Description: A sample buffer and a running buffer were HBS-EP+ (10 mM HEPES, 150 mM NaCl, 3 mM EDTA and 0.05% surfactant P20) (GE Healthcare; BR-1006-69). The flow-through cell was set to 25° C. The sample block was set to 16° C. Both were pretreated with the running buffer. In each cycle, an antibody to be detected was first captured with a Protein A chip, and then a single concentration of CD19 antigen protein was injected. The binding and dissociation processes of the antibody and the antigen protein were recorded, and finally Glycine pH 1.5 (GE Healthcare; BR-1003-54) was used to complete chip regeneration. The binding was measured by injecting different concentrations of recombinant human CD19-His proteins in a solution for 240 s with a flow rate of 30 μl/min. The concentration started from 200 nM (see the detailed results for the actual concentration in the test) and was diluted at 1:1, making a total of 5 concentrations. The dissociation phase was monitored for up to 600 s and was triggered by switching from sample solution to running buffer. The surface was regenerated by washing with a 10 mM glycine solution (pH 1.5) for 30 s at a flow rate of 30 μl/min. Bulk refractive index difference was corrected by subtracting the response obtained from the goat anti-human Fc surface. Blank injection was also subtracted (=double reference). For calculation of apparent KD and other kinetic parameters, Langmuir 1:1 model was used.
# SPR (biacore) detection and data analysis were performed according to the method in example 7.1.
Binder,Kd,koff,kon
B1,1430 pM,0.000186 s⁻¹,130000 M⁻¹ s⁻¹
B2,1530 pM,0.000186 s⁻¹,122000 M⁻¹ s⁻¹
B3,1380 pM,0.000188 s⁻¹,137000 M⁻¹ s⁻¹
B4,0.0498 pM,5.65e-09 s⁻¹,113000 M⁻¹ s⁻¹
B5,244 pM,3.18e-05 s⁻¹,130000 M⁻¹ s⁻¹

# Target: T2, human CD19 exon1-3-His tag protein
# Assay: ELISA, coated human CD19 exon 1-3-His
Binder,OD450 at 0.0001 nM,OD450 at 0.001 nM,OD450 at 0.01 nM,OD450 at 0.10 nM,OD450 at 1.00 nM,OD450 at 10 nM,OD450 at 100 nM
B1,0.05 OD450,0.05 OD450,0.05 OD450,0.05 OD450,0.05 OD450,0.05 OD450,0.09 OD450
B2,0.05 OD450,0.05 OD450,0.05 OD450,0.05 OD450,0.04 OD450,0.05 OD450,0.08 OD450
B3,0.05 OD450,0.05 OD450,0.05 OD450,0.05 OD450,0.05 OD450,0.05 OD450,0.08 OD450
B4,0.05 OD450,0.05 OD450,0.05 OD450,0.05 OD450,0.05 OD450,0.05 OD450,0.12 OD450
B5,0.05 OD450,0.05 OD450,0.05 OD450,0.05 OD450,0.05 OD450,0.05 OD450,0.09 OD450

# Target: T3, human CD19 on CHO-K1-human CD19 cells
# Assay: FACS on CHO-K1-human CD19 cells
# Description: (§1) After the digestion was terminated, the cells were washed 2 times with a PBS buffer; and for suspension cell Raji, the supernatant of the medium was discarded by directly centrifugation, and the cell pellet was washed 2 times with PBS. After counting the cells in the previous step, the cell pellet was resuspended with [PBS+2% (w/w) BSA] blocking solution to 2×10⁶ cells/ml, and added to a 96-well FACS reaction plate at 50 μl/well, and then the sample to be tested was added at 50 μl/well, and incubated on ice for 2 h. The obtained mixture was centrifuged and washed 3 times with a PBS buffer. […] The obtained mixture was centrifuged and washed 5 times with a PBS buffer, and FACS (FACS Canto™, purchased from BD Company) was used for detection and result analysis. Data analysis was performed by software (FlowJo) to obtain the mean fluorescence intensity (MFI) of the cells. And then software (GraphPad Prism8) was used for analysis, data fitting, and EC50 value calculation. […] The same method was used to detect the binding of the chimeric antibodies to endogenous CD19-negative cells, MoLT4 cells (purchased from ATCC, CRL-1582), and CHO-K1 cells.
Binder,EC50,Maximum mean fluorescence intensity
B1,1080 pM,53200 MFI
B2,1130 pM,52000 MFI
B3,1170 pM,52200 MFI
B4,1080 pM,52100 MFI
B5,1130 pM,53500 MFI

# Target: T4, human CD19 on Raji cells
# Assay: FACS on Raji cells
# Description: as §1
Binder,EC50,Maximum mean fluorescence intensity
B1,380 pM,29100 MFI
B2,370 pM,29200 MFI
B3,450 pM,29600 MFI
B4,420 pM,32200 MFI
B5,380 pM,32000 MFI
